Experimental data from the supplement of paper PMC9112550, “Optimization of the antimicrobial peptide Bac7 by deep mutational scanning” (BMC Biology, 2022).
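Also: peptides expressed intracellularly from a pBAD plasmid library in pooled LB shake-flask culture, induced with 0.3% L-arabinose, DNA abundance read by NGS, three biological replicates, DESeq2 with apeglm shrinkage.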

The sequences below were run on Escherichia coli TOP10 (assay: shrunken log2 fold change of peptide-encoding DNA abundance (4.5 h post-induction vs induction); higher = less antimicrobial activity (less host growth inhibition)). Details: time post-induction: 4.5 h; library: site-saturation at positions 5, 18, 19, 20.
With RRIRWRPPRLPRPRPRPGDFPRP the “shrunken log2 fold change” value was 0.564. In the case of RRIRWRPPRLPRPRPRPGDLPRP, the “shrunken log2 fold change” value is reported as 0.0106. In the case of RRIRWRPPRLPRPRPRPGDWPRP, the “shrunken log2 fold change” value is reported as 0.655. For RRIRWRPPRLPRPRPRPGFCPRP, the “shrunken log2 fold change” value was 0.524. In the case of RRIRWRPPRLPRPRPRPGHLPRP, the “shrunken log2 fold change” value is reported as 0.0651. In the case of RRIRWRPPRLPRPRPRPGHQPRP, the “shrunken log2 fold change” value is reported as -0.0269. RRIRWRPPRLPRPRPRPGIAPRP was tested, and the “shrunken log2 fold change” value was 0.411. With RRIRWRPPRLPRPRPRPGKAPRP the “shrunken log2 fold change” value was 0.0616. RRIRWRPPRLPRPRPRPGKKPRP was tested, and the “shrunken log2 fold change” value was 0.375. In the case of RRIRWRPPRLPRPRPRPGLKPRP, the “shrunken log2 fold change” value is reported as -0.109. With RRIRWRPPRLPRPRPRPGNRPRP the “shrunken log2 fold change” value was -0.00977. RRIRWRPPRLPRPRPRPGPAPRP was tested, and the “shrunken log2 fold change” value was 1.65. For RRIRWRPPRLPRPRPRPGPNPRP, the “shrunken log2 fold change” value was 0.194. RRIRWRPPRLPRPRPRPGQVPRP was tested, and the “shrunken log2 fold change” value was -0.0635. In the case of RRIRWRPPRLPRPRPRPGRGPRP, the “shrunken log2 fold change” value is reported as 0.643. RRIRWRPPRLPRPRPRPGRSPRP was tested, and the “shrunken log2 fold change” value was 0.0808. With RRIRWRPPRLPRPRPRPGSAPRP the “shrunken log2 fold change” value was 0.432. For RRIRWRPPRLPRPRPRPGSFPRP, the “shrunken log2 fold change” value was 0.0155. RRIRWRPPRLPRPRPRPGTGPRP was tested, and the “shrunken log2 fold change” value was 0.188. RRIRWRPPRLPRPRPRPGVSPRP was tested, and the “shrunken log2 fold change” value was 0.34. For RRIRWRPPRLPRPRPRPGYFPRP, the “shrunken log2 fold change” value was -0.152. In the case of RRIRWRPPRLPRPRPRPHAEPRP, the “shrunken log2 fold change” value is reported as 0.0375. For RRIRWRPPRLPRPRPRPHAIPRP, the “shrunken log2 fold change” value was -0.124. With RRIRWRPPRLPRPRPRPHARPRP the “shrunken log2 fold change” value was 0.516. For RRIRWRPPRLPRPRPRPHCEPRP, the “shrunken log2 fold change” value was -0.262. RRIRWRPPRLPRPRPRPHCTPRP was tested, and the “shrunken log2 fold change” value was -0.401. For RRIRWRPPRLPRPRPRPHDAPRP, the “shrunken log2 fold change” value was -0.145. For RRIRWRPPRLPRPRPRPHEIPRP, the “shrunken log2 fold change” value was 0.0984. With RRIRWRPPRLPRPRPRPHFCPRP the “shrunken log2 fold change” value was -0.0299. For RRIRWRPPRLPRPRPRPHICPRP, the “shrunken log2 fold change” value was 0.00277. For RRIRWRPPRLPRPRPRPHKGPRP, the “shrunken log2 fold change” value was -0.185. With RRIRWRPPRLPRPRPRPHKQPRP the “shrunken log2 fold change” value was -0.0365. In the case of RRIRWRPPRLPRPRPRPHKWPRP, the “shrunken log2 fold change” value is reported as 0.18. For RRIRWRPPRLPRPRPRPHLHPRP, the “shrunken log2 fold change” value was -0.043. For RRIRWRPPRLPRPRPRPHLPPRP, the “shrunken log2 fold change” value was -0.166. RRIRWRPPRLPRPRPRPHMLPRP was tested, and the “shrunken log2 fold change” value was -0.954. With RRIRWRPPRLPRPRPRPHMVPRP the “shrunken log2 fold change” value was -0.069. RRIRWRPPRLPRPRPRPHNAPRP was tested, and the “shrunken log2 fold change” value was -0.0847. For RRIRWRPPRLPRPRPRPHNYPRP, the “shrunken log2 fold change” value was -0.267. In the case of RRIRWRPPRLPRPRPRPHQCPRP, the “shrunken log2 fold change” value is reported as -0.112. With RRIRWRPPRLPRPRPRPHQHPRP the “shrunken log2 fold change” value was -0.214. In the case of RRIRWRPPRLPRPRPRPHQVPRP, the “shrunken log2 fold change” value is reported as -0.145. In the case of RRIRWRPPRLPRPRPRPHRCPRP, the “shrunken log2 fold change” value is reported as 0.000478. RRIRWRPPRLPRPRPRPHRWPRP was tested, and the “shrunken log2 fold change” value was 0.103. In the case of RRIRWRPPRLPRPRPRPHWCPRP, the “shrunken log2 fold change” value is reported as -0.062. With RRIRWRPPRLPRPRPRPHWSPRP the “shrunken log2 fold change” value was -0.182. With RRIRWRPPRLPRPRPRPIAAPRP the “shrunken log2 fold change” value was 0.976. With RRIRWRPPRLPRPRPRPICGPRP the “shrunken log2 fold change” value was 0.0975. With RRIRWRPPRLPRPRPRPIDMPRP the “shrunken log2 fold change” value was 0.0712. In the case of RRIRWRPPRLPRPRPRPIFVPRP, the “shrunken log2 fold change” value is reported as 0.0493. For RRIRWRPPRLPRPRPRPIGTPRP, the “shrunken log2 fold change” value was 0.175. With RRIRWRPPRLPRPRPRPIHQPRP the “shrunken log2 fold change” value was 0.0226. RRIRWRPPRLPRPRPRPIHYPRP was tested, and the “shrunken log2 fold change” value was -1.07. RRIRWRPPRLPRPRPRPILYPRP was tested, and the “shrunken log2 fold change” value was -0.515. For RRIRWRPPRLPRPRPRPIQIPRP, the “shrunken log2 fold change” value was -0.378. For RRIRWRPPRLPRPRPRPIQRPRP, the “shrunken log2 fold change” value was 0.0678. For RRIRWRPPRLPRPRPRPIQYPRP, the “shrunken log2 fold change” value was -0.101. With RRIRWRPPRLPRPRPRPIRHPRP the “shrunken log2 fold change” value was -0.252. RRIRWRPPRLPRPRPRPISIPRP was tested, and the “shrunken log2 fold change” value was -0.234. In the case of RRIRWRPPRLPRPRPRPISKPRP, the “shrunken log2 fold change” value is reported as -0.215. For RRIRWRPPRLPRPRPRPITKPRP, the “shrunken log2 fold change” value was 0.258. For RRIRWRPPRLPRPRPRPIWTPRP, the “shrunken log2 fold change” value was 0.107. With RRIRWRPPRLPRPRPRPIYFPRP the “shrunken log2 fold change” value was -0.198. In the case of RRIRWRPPRLPRPRPRPIYKPRP, the “shrunken log2 fold change” value is reported as -0.596. For RRIRWRPPRLPRPRPRPKAGPRP, the “shrunken log2 fold change” value was 0.538. For RRIRWRPPRLPRPRPRPKAIPRP, the “shrunken log2 fold change” value was -0.00613. With RRIRWRPPRLPRPRPRPKCAPRP the “shrunken log2 fold change” value was 0.706. RRIRWRPPRLPRPRPRPKCIPRP was tested, and the “shrunken log2 fold change” value was -0.217. RRIRWRPPRLPRPRPRPKCMPRP was tested, and the “shrunken log2 fold change” value was 0.531. With RRIRWRPPRLPRPRPRPKCNPRP the “shrunken log2 fold change” value was 0.136. With RRIRWRPPRLPRPRPRPKDQPRP the “shrunken log2 fold change” value was 0.508. With RRIRWRPPRLPRPRPRPKDYPRP the “shrunken log2 fold change” value was 0.0778. In the case of RRIRWRPPRLPRPRPRPKEKPRP, the “shrunken log2 fold change” value is reported as 0.0316. With RRIRWRPPRLPRPRPRPKETPRP the “shrunken log2 fold change” value was 0.0203. RRIRWRPPRLPRPRPRPKEWPRP was tested, and the “shrunken log2 fold change” value was 0.00353. For RRIRWRPPRLPRPRPRPKFEPRP, the “shrunken log2 fold change” value was 0.2. RRIRWRPPRLPRPRPRPKFWPRP was tested, and the “shrunken log2 fold change” value was 0.0806. With RRIRWRPPRLPRPRPRPKGRPRP the “shrunken log2 fold change” value was 0.0214. RRIRWRPPRLPRPRPRPKHHPRP was tested, and the “shrunken log2 fold change” value was -0.208. In the case of RRIRWRPPRLPRPRPRPKHRPRP, the “shrunken log2 fold change” value is reported as 0.149. RRIRWRPPRLPRPRPRPKIPPRP was tested, and the “shrunken log2 fold change” value was 0.0948. RRIRWRPPRLPRPRPRPKKCPRP was tested, and the “shrunken log2 fold change” value was 0.18. For RRIRWRPPRLPRPRPRPKKLPRP, the “shrunken log2 fold change” value was -0.0343. In the case of RRIRWRPPRLPRPRPRPKKRPRP, the “shrunken log2 fold change” value is reported as 0.426. RRIRWRPPRLPRPRPRPKKSPRP was tested, and the “shrunken log2 fold change” value was 0.395. In the case of RRIRWRPPRLPRPRPRPKLRPRP, the “shrunken log2 fold change” value is reported as 0.132. For RRIRWRPPRLPRPRPRPKMLPRP, the “shrunken log2 fold change” value was 0.149. With RRIRWRPPRLPRPRPRPKNYPRP the “shrunken log2 fold change” value was -0.152. For RRIRWRPPRLPRPRPRPKPMPRP, the “shrunken log2 fold change” value was 0.171. With RRIRWRPPRLPRPRPRPKQYPRP the “shrunken log2 fold change” value was -0.266. With RRIRWRPPRLPRPRPRPKSMPRP the “shrunken log2 fold change” value was -0.0141. RRIRWRPPRLPRPRPRPKTLPRP was tested, and the “shrunken log2 fold change” value was 0.19. For RRIRWRPPRLPRPRPRPKTNPRP, the “shrunken log2 fold change” value was 0.239. In the case of RRIRWRPPRLPRPRPRPLAKPRP, the “shrunken log2 fold change” value is reported as 0.499. For RRIRWRPPRLPRPRPRPLFHPRP, the “shrunken log2 fold change” value was -0.0933. For RRIRWRPPRLPRPRPRPLGMPRP, the “shrunken log2 fold change” value was -0.156. With RRIRWRPPRLPRPRPRPLHDPRP the “shrunken log2 fold change” value was 0.387. For RRIRWRPPRLPRPRPRPLKHPRP, the “shrunken log2 fold change” value was -0.623. RRIRWRPPRLPRPRPRPLLEPRP was tested, and the “shrunken log2 fold change” value was 0.216. With RRIRWRPPRLPRPRPRPLLPPRP the “shrunken log2 fold change” value was 0.676. In the case of RRIRWRPPRLPRPRPRPLMLPRP, the “shrunken log2 fold change” value is reported as -0.0143. With RRIRWRPPRLPRPRPRPLNHPRP the “shrunken log2 fold change” value was -0.176. In the case of RRIRWRPPRLPRPRPRPLQMPRP, the “shrunken log2 fold change” value is reported as 0.161. In the case of RRIRWRPPRLPRPRPRPLQYPRP, the “shrunken log2 fold change” value is reported as -0.133. In the case of RRIRWRPPRLPRPRPRPLRRPRP, the “shrunken log2 fold change” value is reported as 0.587. RRIRWRPPRLPRPRPRPLTAPRP was tested, and the “shrunken log2 fold change” value was 0.436. RRIRWRPPRLPRPRPRPLVKPRP was tested, and the “shrunken log2 fold change” value was 0.147. RRIRWRPPRLPRPRPRPLVRPRP was tested, and the “shrunken log2 fold change” value was 0.151. RRIRWRPPRLPRPRPRPLWCPRP was tested, and the “shrunken log2 fold change” value was 0.149.
